According to patent US20210047372A1 (Affibody, published 2021):

biological target: T1, complement component 4 (C4) (UniProt P0C0L4 20-675; P0C0L4 680-1446; P0C0L4 1454-1744, limits assumed); assay: SPR, Biacore T200; target immobilized on CM5, His6-tagged Y variant injected; 1:1 Langmuir
T1 construct: Natural C4 is a three-chain protein (alpha, beta, gamma) made from one precursor; Biotinylated for ELISA, amine-coupled to the chip for SPR; also called b-C4
Procedure: (§1) Kinetic constants (kₐ and kd) and affinities (KD) were determined for Hiss-tagged Y variants using a Biacore T200 instrument (GE Healthcare). Target proteins C4, IL-6 and insulin, respectively, were immobilized in separate flow cells on the carboxylated dextran layer of different CM5 chip surfaces (GE Healthcare).
(§2) Immobilization was performed using amine coupling chemistry according to the manufacturer's protocol and PBS pH 7.4 supplemented with 0.1 Tween20 (PBST 0.1%) as running buffer. The ligand immobilization levels on the surfaces were 3280-8830 RU for C4, 495-1184 RU for IL-6, and 270-282 RU for insulin. One flow cell surface on each chip was activated and deactivated for use as blank during analyte injections. In the kinetic experiment, PBST 0.1% was used as running buffer at a flow rate of 30 μl/min. The analytes, i.e. Y variants, were each diluted in PBST 0.1 buffer at concentrations of 1000, 500, 100, 50 and 10 nM and injected for 5 min, followed by dissociation in running buffer for 3 min. After dissociation, the surfaces were regenerated with one injection of 30 μl 10 mM HCl. Kinetic constants were calculated from the sensorgrams using the Langmuir 1:1 model of Biacore T200 Evaluation software 2.0 (GE Healthcare).

T1 sequence (P0C0L4 20-675 limits assumed, chain 1 of 3): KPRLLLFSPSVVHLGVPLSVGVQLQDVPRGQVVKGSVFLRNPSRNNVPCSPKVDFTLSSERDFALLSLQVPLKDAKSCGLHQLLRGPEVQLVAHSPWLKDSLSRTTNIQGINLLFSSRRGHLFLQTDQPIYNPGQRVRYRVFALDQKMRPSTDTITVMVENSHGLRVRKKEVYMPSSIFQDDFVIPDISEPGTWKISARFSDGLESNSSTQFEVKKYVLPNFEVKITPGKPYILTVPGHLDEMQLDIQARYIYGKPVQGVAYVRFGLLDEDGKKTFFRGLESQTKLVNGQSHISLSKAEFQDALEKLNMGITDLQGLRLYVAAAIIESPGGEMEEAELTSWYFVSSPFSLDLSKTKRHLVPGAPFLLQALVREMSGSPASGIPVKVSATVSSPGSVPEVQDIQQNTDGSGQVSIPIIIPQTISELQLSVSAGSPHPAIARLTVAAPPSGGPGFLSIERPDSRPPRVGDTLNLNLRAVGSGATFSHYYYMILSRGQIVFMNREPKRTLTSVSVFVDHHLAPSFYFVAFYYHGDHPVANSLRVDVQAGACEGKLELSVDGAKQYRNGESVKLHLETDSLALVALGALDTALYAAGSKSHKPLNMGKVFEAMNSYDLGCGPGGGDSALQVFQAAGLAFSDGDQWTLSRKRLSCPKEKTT
T1 sequence (P0C0L4 680-1446 limits assumed, chain 2 of 3): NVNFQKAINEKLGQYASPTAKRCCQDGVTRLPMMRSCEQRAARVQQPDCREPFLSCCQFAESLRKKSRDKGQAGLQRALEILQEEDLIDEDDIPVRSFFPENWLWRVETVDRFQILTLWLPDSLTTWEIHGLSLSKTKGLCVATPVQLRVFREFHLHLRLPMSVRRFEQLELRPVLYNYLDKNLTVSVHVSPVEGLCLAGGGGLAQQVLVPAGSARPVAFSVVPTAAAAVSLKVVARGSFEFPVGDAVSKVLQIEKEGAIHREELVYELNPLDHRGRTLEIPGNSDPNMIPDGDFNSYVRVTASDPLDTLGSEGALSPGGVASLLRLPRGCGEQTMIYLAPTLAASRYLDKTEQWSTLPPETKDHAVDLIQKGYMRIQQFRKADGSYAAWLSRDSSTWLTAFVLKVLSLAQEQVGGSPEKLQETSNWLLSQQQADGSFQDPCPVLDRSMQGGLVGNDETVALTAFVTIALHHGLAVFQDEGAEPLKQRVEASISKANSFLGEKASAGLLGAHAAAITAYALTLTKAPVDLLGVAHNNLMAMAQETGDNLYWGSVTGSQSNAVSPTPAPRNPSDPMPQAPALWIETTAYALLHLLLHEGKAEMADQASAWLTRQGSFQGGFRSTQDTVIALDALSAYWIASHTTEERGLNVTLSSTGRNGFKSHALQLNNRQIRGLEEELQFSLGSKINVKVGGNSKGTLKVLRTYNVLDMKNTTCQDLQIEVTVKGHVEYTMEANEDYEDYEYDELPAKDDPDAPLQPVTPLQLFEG
T1 sequence (P0C0L4 1454-1744 limits assumed, chain 3 of 3): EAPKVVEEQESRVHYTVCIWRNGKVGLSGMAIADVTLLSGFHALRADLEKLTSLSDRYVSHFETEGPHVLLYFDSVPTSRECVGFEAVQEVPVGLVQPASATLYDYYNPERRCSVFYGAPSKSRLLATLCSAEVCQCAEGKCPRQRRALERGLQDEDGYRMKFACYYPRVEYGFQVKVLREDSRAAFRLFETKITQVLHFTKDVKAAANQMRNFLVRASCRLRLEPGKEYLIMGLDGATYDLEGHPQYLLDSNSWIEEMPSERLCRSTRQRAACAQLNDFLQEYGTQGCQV

| Binder | Kd | koff | kon |
| --- | --- | --- | --- |
| Y02309 (designed binder, From library Ylib002Naive.I) MGSSHHHHHHGSSLAEAKEAAIAELDSKGVGADLIKKIQKAESVEGVQFWKQEILATLPA | 70 nM | 0.0025 s⁻¹ | 36000 M⁻¹ s⁻¹ |
| Y00792 (designed binder, From library Ylib002Naive.I) MGSSHHHHHHGSSLAEAKEAAIAELDSKGVGADLIKKIQQASSVEGVQFWKQEILAQLPA | 62 nM | 0.0017 s⁻¹ | 27000 M⁻¹ s⁻¹ |
| Y02330 (designed binder, From library Ylib002Naive.I) MGSSHHHHHHGSSLAEAKEAAIAELDSKGVGAELIKKIQHAESVEGVQFWKQEILAYLPA | 48 nM | 0.0046 s⁻¹ | 96000 M⁻¹ s⁻¹ |
| Y02303 (designed binder, From library Ylib002Naive.I) MGSSHHHHHHGSSLAEAKEAAIAELDSKGVGAEEIKWIQNAWSVEGVQIMKQQILAELPA | 2200 nM | 0.21 s⁻¹ | 96000 M⁻¹ s⁻¹ |
| Y02337 (designed binder, From library Ylib002Naive.I) MGSSHHHHHHGSSLAEAKEAAIAELDSKGVGAAEIKWIQHASTVEGVQGRKQQILAELPA | 1900 nM | 0.81 s⁻¹ | 420000 M⁻¹ s⁻¹ |
| Y02358 (designed binder, From library Ylib002Naive.I) MGSSHHHHHHGSSLAEAKEAAIAELDSKGVGADDIKLIQDAPSVEGVQEIKQFILAQLPA | 16 nM | 0.0014 s⁻¹ | 90000 M⁻¹ s⁻¹ |

biological target: T2, insulin (UniProt P01308 25-54; P01308 90-110, limits assumed); assay: as above
T2 construct: Mature insulin has two chains (A and B) from one precursor; also called b-insulin
Procedure: as §1, §2

T2 sequence (P01308 25-54 limits assumed, form in doubt, chain 1 of 2): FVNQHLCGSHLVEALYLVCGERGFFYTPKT
T2 sequence (P01308 90-110 limits assumed, form in doubt, chain 2 of 2): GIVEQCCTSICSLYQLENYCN

| Binder | Kd |
| --- | --- |
| Y00032 (designed binder) MGSSHHHHHHGSSLAEAKEAAIAELDSKGVGAYQKSFIELAKSVEHVELLKEAILADLP | 63 nM |
| Y00270 (designed binder, Y00032 with K22I + S23K) MGSSHHHHHHGSSLAEAKEAAIAELDSKGVGAYQIKFIELAKSVEHVELLKEAILADLP | 77 nM |

biological target: T3, interleukin 6 (IL-6) (UniProt P05231 30-212); assay: as above
T3 construct: also called b-IL-6
Procedure: as §1, §2

| Binder | Kd | koff | kon |
| --- | --- | --- | --- |
| Y02701 (designed binder, Y02415 with K15Y) MGSSHHHHHHGSSLAEAKEAAIAELDSYGVGAGDIKDIQDALLVEIVQLLKQAILAVLPA | 210 nM | 0.0036 s⁻¹ | 21000 M⁻¹ s⁻¹ |
| Y02702 (designed binder, Y02415 with Q26E) MGSSHHHHHHGSSLAEAKEAAIAELDSKGVGAGDIKDIEDALLVEIVQLLKQAILAVLPA | 440 nM | 0.007 s⁻¹ | 16000 M⁻¹ s⁻¹ |
| Y02703 (designed binder, Y02444 with K15Y + Q26E) MGSSHHHHHHGSSLAEAKEAAIAELDSYGVGAVEIKQIEEALLVEIVQLLKQAILAVLPA | 120 nM | 0.0025 s⁻¹ | 21000 M⁻¹ s⁻¹ |

biological target: T2, insulin; assay: as above; remark: another data set of the same source
Procedure: as §1, §2

| Binder | Kd |
| --- | --- |
| Y00032 (designed binder) MGSSHHHHHHGSSLAEAKEAAIAELDSKGVGAYQKSFIELAKSVEHVELLKEAILADLP | 63 nM |
| Y00270 (designed binder, Y00032 with K22I + S23K) MGSSHHHHHHGSSLAEAKEAAIAELDSKGVGAYQIKFIELAKSVEHVELLKEAILADLP | 77 nM |
| Y00292 (designed binder, Y00032 with S23K + E35Q + E39Q) MGSSHHHHHHGSSLAEAKEAAIAELDSKGVGAYQKKFIELAKSVEHVQLLKQAILADLP | 450 nM |
| Y00293 (designed binder, Y00270 with E35Q + E39Q; also called Y000293) MGSSHHHHHHGSSLAEAKEAAIAELDSKGVGAYQIKFIELAKSVEHVQLLKQAILADLP | 490 nM |
| Y00294 (designed binder, Y00270 with E35Q + A43K) MGSSHHHHHHGSSLAEAKEAAIAELDSKGVGAYQIKFIELAKSVEHVQLLKEAILKDLP | 490 nM |
| Y00295 (designed binder, Y00270 with E35Q + E39Q + A43K) MGSSHHHHHHGSSLAEAKEAAIAELDSKGVGAYQIKFIELAKSVEHVQLLKQAILKDLP | 580 nM |
